In US20240368233A1 (University of Washington, published 2024):

T1: DFX
T1 construct: Bivalent connector
T1 chain: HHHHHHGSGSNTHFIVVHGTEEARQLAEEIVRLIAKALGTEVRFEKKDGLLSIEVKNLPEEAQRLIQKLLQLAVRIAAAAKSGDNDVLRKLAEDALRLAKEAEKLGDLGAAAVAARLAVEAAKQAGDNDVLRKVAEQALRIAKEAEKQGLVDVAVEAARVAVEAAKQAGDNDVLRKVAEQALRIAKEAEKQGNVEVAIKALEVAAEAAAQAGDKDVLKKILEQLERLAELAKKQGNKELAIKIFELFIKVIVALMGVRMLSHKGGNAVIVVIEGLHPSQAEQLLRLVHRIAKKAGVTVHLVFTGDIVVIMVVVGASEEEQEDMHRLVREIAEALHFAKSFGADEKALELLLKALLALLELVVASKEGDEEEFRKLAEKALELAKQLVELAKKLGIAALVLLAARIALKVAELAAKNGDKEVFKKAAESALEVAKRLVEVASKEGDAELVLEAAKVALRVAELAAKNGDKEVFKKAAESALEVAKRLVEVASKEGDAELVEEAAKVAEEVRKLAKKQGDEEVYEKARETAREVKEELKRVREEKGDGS

T2: DFA0
T2 construct: Bivalent connector
T2 chain: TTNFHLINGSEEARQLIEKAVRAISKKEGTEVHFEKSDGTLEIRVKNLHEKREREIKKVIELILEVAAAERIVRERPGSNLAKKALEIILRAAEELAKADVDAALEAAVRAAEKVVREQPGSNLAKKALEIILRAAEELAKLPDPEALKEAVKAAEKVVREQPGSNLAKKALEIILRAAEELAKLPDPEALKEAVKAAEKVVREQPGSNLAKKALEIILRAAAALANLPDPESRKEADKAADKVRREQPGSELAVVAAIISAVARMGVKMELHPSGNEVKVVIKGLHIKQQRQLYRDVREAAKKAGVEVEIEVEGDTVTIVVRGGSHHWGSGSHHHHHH

T3: LHD101 chainA
T3 construct: also called LHD101A
T3 chain: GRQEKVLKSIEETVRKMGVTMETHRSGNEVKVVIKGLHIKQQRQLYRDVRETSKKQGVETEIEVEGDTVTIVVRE

B1: 274A53 (designed binder)
chain: TTNFHLINGSEEARQLIEKAVRAISKKEGTEVHFEKSDGTLEIRVKNLHEKREREIKKVIELILEVAAAERIVRERPGSNLAKKALEIILRAAEELAKADVDAALEAAVRAAEKVVREQPGSNLAKKALEIILRAAEELAKLPDPEALKEAVKAAEKVVREQPGSELAKKALEIIERAAEELKKSPDPEAQKEAKKAEQKVREESGSHHWGSGLNDIFEAQKIEWHEGSHHHHHH
notes: also called LHD274A DHR53 stop; LHD274A53
B2: 101B62 (designed binder)
chain: HHHHHHGSGLNDIFEAQKIEWHEAENLYFQSGSNDEKRKRAEKALQRAQEAEKKGDVEEAVRAAQEAVRAAKESGDNDVLRKVAEQALRIAKEAEKQGNVEVAVKAARVAVEAAKQAGDNDVLRKVAEQALRIAKEALKQGNVDVAAKAAQVAEEAAKQAGDQDVLRKVKEVQIEIVLAAIELTVRKMGVTMETHRSGREVKVVIKGLHESQQEQLLEDVLRIAELAGVRVRIRFKGDTVTIVVRG
notes: also called LHD101B62

Experiments:
[1] = target: the molecule itself; assay: SEC titration (Superdex 200, normalised A230) of 274A53 and 29A53 alone; self-association
DFX = target: T1, DFX; assay: negative-stain EM of the heterotrimer; components named in the legend
Procedure: SEC peak fractions were concentrated prior to negative stain EM screening. Samples were then immediately diluted 5 to 150 times in TBS buffer (25 mM Tris pH 8.0, 25 mM NaCl) depending on sample concentration. A final volume of 5 μL was applied to negatively glow discharged, carbon-coated 400-mesh copper grids (01844-F, TedPella, Inc.), then washed with Milli-Q™ Water and stained using 0.75% uranyl formate as previously described (53). Air-dried grids were imaged on a FEI Talos L120C TEM (FEI Thermo Scientific, Hillsboro, OR) equipped with a 4K×4K Gatan OneView™ camera at a magnification of 57,000× and pixel size of 2.51. Micrographs were imported into CisTEM software or cryoSPARC™ software and a circular blob picker was used to select particles which were then subjected to 2D classification. Ab initio reconstruction and homogeneous refinement in Cn symmetry were used to generate 3D electron density maps (54, 55).

DFA0 = target: T2, DFA0; assay: SEC of mixed components; linear tetramer listed in Table 6, neighbours in the chain
LHD101 chainA = target: T3, LHD101 chainA; assay: BLI steady-state titration, biotinylated unfused LHD101A on a streptavidin sensor
Excerpt: FIG. 8A-E. Characterization LHD binding in vitro. A: Designed models heterodimers (top row). Middle row, SEC binding experiments performed on a Superdex™ 75 column. Bottom row, biolayer interferometry kinetic binding traces. […] C: Kinetic binding traces from BLI. Equilibrium responses were used to fit equilibrium binding curves D: Equilibrium binding curves of LHDs from biolayer interferometry binding assays with data from C. […] Biotinylated unfused protomers were immobilized on streptavidin coated biosensors.
Biolayer interferometry experiments were performed on an OctetRED96 BLI system (ForteBio, Menlo Park, CA). Streptavidin coated biosensors were first equilibrated for at least 10 minutes in Octet buffer (10 mM HEPES pH 7.4, 150 mM NaCl, 3 mM EDTA, 0.05% Surfactant P20) supplemented with 1 mg/ml Bovine Serum Albumin (SigmaAldrich). Enzymatically biotinylated designs were immobilized onto the biosensors by dipping the biosensors into a solution with 10-50 nM protein for 30-120 s. This was followed by dipping in fresh octet buffer to establish a baseline for 120 s. Titration experiments were performed at 25° C. while rotating at 1,000 r.p.m. […]

Binder	binding result [1]	binding result (DFX)	binding result (DFA0)	binding result (LHD101 chainA)
B1	no binding (tested: 8.0 uM)	binds	–	–
B2	–	–	binds	binds
